Data: patent publication US20090104196A1 (UNIVERSITAETSKLINIKUM FREIBURG, published 2009)

Biological target: T1, LSD1 1-174 (N-terminus of LSD1), labelled (UniProt O60341 1-174)
T1 construct: Labelled LSD1 deletion mutant used in the GST pull-down; not shown: Flag tag of the CMX-Flag vector
Test: GST pull-down, labelled LSD1 mutant
Method: GST, GST-Nix1, GST-ROR[…], and GST ERβ-NTD proteins were used as control. (NTD; N-terminal domain, DBD; DNA-binding domain, LBD; ligand-binding domain).
GST pull-down assays were performed with equal amounts of GST or GST fusion proteins as described¹⁷ using buffer containing either 150 mM KCl, 0.15% NP40 (FIG. 1b) or 600 mM KCl, 0.3% NP40 (FIG. 7a). Pull-downs with sepharose coupled histone H3 tail were performed as described²⁷ in 20 mM Tris pH 8.5, 150 mM NaCl, 0.5% NP40.10% of the in vitro translated proteins were loaded as input.

B1: GST-AR-DBD (GST fused to the DNA-binding domain of the androgen receptor), bacterially expressed (other, UniProt P10275 560-632, looked up)
chain: CLICGDEASGCHYGALTCGSCKVFFKRAAEGKQKYLCASRNDCTIDKFRRKNCPSCRLRKCYEAGMTLGARKL
notes: also called GST-AR fusion protein; not shown: glutathione S-transferase (GST) fusion partner
B1: no binding.
